Test system: MS2 coat protein
Test: apparent KD of MS2 coat protein; designed switch direction (-1 OFF switch, 1 ON switch): 1; higher = weaker reporter binding
In short: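 Apparent KD, taken as the median over clusters for each design, was obtained by curve-fitting normalised cluster fluorescence. Designed RNA switches had been transcribed on Illumina chips by stalled E. coli RNA polymerase and titrated with SNAP-549-labelled MS2 coat protein, doubling from 0.7 or 1.5 nM to 3 µM.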

[1] = input ligand: microRNA oligo, concentration not stated
[2] = Eterna round: R95, input ligand: FMN 200 uM
[3] = Eterna round: R95, input ligand: microRNA oligo, concentration not stated
[4] = Eterna round: R95, input ligand: none

| Sequence | apparent KD of MS2 coat protein (input ligand: FMN 200 uM) | apparent KD of MS2 coat protein [1] | apparent KD of MS2 coat protein (input ligand: none) | apparent KD of MS2 coat protein [2] | apparent KD of MS2 coat protein [3] | apparent KD of MS2 coat protein [4] |
| --- | --- | --- | --- | --- | --- | --- |
| UAUGAAUAGCAAGGAUAUUGAUAACAUGAGGAUCACCCAUGUAAUUGAUUGAGAAAGAUUAGUUACAAGAAGGUGCAAUUGAUU [JR_SSNG2_Sub034] (Eterna round: R96, puzzle: Same State NG 2) | 282 nM | 441 nM | 311 nM | – | – | – |
| GAGAGAUGGCUAGGAUAUUCGGUGAUAAUGAUAGAAGAAGGAGCUGACAUGAGGAUCACCCAUGUGGGAAUAAUCCAGAGAGAG [Parity 19 - Jieux - Same State NG 1] (Eterna round: R96, puzzle: Same State NG 1) | 167 nM | 56.1 nM | 96.7 nM | – | – | – |
| AGUCCAGCCUGAGCUGGACAAAAGCGUGUACAUGAGGAUCACCCAUGUCAUGUACAAGCUUUUUGCUCGUCUUAAAA [Zipper 46 - 7] (puzzle: Sensor for hsa-mir-208a) | – | – | – | 63.5 nM | 19.9 nM | 69.8 nM |
| CUCGUAUCGGGAGGAUAUGGUGCCUUGUUGGUGCUAGAAGGUCCAACAUGAGGAUCACCCAUGUGCGAGUGGUUGAGAGACCUC [SS NG10LRO14] (Eterna round: R96, puzzle: Same State NG 1) | 708 nM | 506 nM | 1000 nM | – | – | – |
| GCUCGAUGAAAGUCCUACAUGAGGAUCACCCAUGUACGUGGGCAGGAUAUCUACAUGCAGAGUGUAGAGAAGGGCCCAUCGAGC [SameState NG3 #60] (Eterna round: R96, puzzle: Same State NG 3) | 18.6 nM | 22.6 nM | 34.9 nM | – | – | – |
| CGUCCGGCCUGUGCUGGCCGGUGGCUUGUACAUGAGGAUCACCCAUGUUCUUGUGCUGGCUGUUUGCUCGUCUUGUG [salish99_mir208a_r3_021] (puzzle: Sensor for hsa-mir-208a) | – | – | – | 50.2 nM | 22.6 nM | 61.2 nM |
| GUAGCAUACCGAGGAUAUUCUACAUGAGGAUCACCCAUGUUUAAUAGGCCACAUUAGUGGCCUUGGGAGAAGGCGGAAUGCUAC [Xeonanis - 20 Mod47] (Eterna round: R96, puzzle: Same State NG 2) | 13.6 nM | 12.7 nM | 19.8 nM | – | – | – |
| UAAAUACAUGAGGAUCACCCAUGUCAAAAGACAUGAGGAUAUGUACAGACUUCGGUCUGUACAGAAGGCAUGAAUA [salish99_ss1_r3_096] (puzzle: Same State 1) | – | – | – | 34.4 nM | 294 nM | 566 nM |
| AUAAUAAUAAGUCAGGAUAUGUUGAUAAAGACAUGAGGAUCACCCAUGUGAAAUAAAAUAAUAAUACAGAAGGGACAAUAAUAAA [JMF's solution 3] (puzzle: Same State 2) | – | – | – | 252 nM | 64 nM | 265 nM |
| UAGAAACAUGAGGAUCACCCAUGUGUCAAAGACAUAGGAUAUCAUAACUGGCGCCAGUUAUGAGAAGGGUGGUAAA [Belezaqu] (puzzle: Same State 1) | – | – | – | 33.8 nM | 52.6 nM | 170 nM |
| UGAAUAGUGAUAGGAUAUACAUGAGGAAUCCUCGUAGAAGGAUCACGACAUGAGGAUCACCCAUGUAGCCGUCCGUAGACGGCA [Mat - Same State NG 1 - JL mod - D59] (Eterna round: R96, puzzle: Same State NG 1) | 353 nM | 66.4 nM | 231 nM | – | – | – |
| CUGAGCAGUCAAGGAUAUCACGUCGAUUAGACGUGAGAAGGUGACCAAUACAUGAGGAUCACCCAUGUAAUACAUGAAGCUCAG [SSNG1/12-A2] (Eterna round: R96, puzzle: Same State NG 1) | 20.4 nM | 28.5 nM | 39.5 nM | – | – | – |
| GCGAGCGUACUUGCAGACAUGAGGAUCACCCAUGUAAAUGGGAAGGAUAUGGUACCGUUUCGGUACCAGAAGGUCCUAAGUGAU [salish99_SSNG3_r04_301] (Eterna round: R96, puzzle: Same State NG 3) | 665 nM | 1080 nM | 1130 nM | – | – | – |
| AUAAGGCAAGCUUUUUUCUCGUAGUAUAAACAUGAGGAUCACCCAUGUGCCUACCCUGGAUCUUUGGAUCGCAGAAA [Ravebiat] (puzzle: Sensor for hsa-mir-208a) | – | – | – | 22.1 nM | 15.7 nM | 28.3 nM |
| AGCUAUUACGAAGGAUAUUCUGACAUGAGGAUCACCCAUGUCUUCAUGAUUUAUUGUGAUCACAUGAAGAAGGUUGUACUAACA [SameState NG2 #25] (Eterna round: R96, puzzle: Same State NG 2) | 106 nM | 130 nM | 93.1 nM | – | – | – |
| AGCAUACAUGAGGAUCACCCAUGUCAACUUAGUCGAGGAUAUGGGCAGCCGUGAGGCGAACCAGAAGGCGAAUUGA [Mat - Same State 1 - Mod of JL - D2] (puzzle: Same State 1) | – | – | – | 18.5 nM | 28.1 nM | 26.2 nM |

| Sequence | apparent KD of MS2 coat protein (input ligand: FMN 200 uM) | apparent KD of MS2 coat protein [1] | apparent KD of MS2 coat protein (input ligand: none) | apparent KD of MS2 coat protein [2] | apparent KD of MS2 coat protein [3] | apparent KD of MS2 coat protein [4] |
| --- | --- | --- | --- | --- | --- | --- |
| UUGCUCGUGUGAGGAUAUGCCGCCGUUUCGGCUGCAGAAGGUACUCUUAUACAUGAGGAUCACCCAUGUCUCUGUUGUUUCGUG [salish99_SSNG1_r04_936] (Eterna round: R96, puzzle: Same State NG 1) | 97.9 nM | 65.3 nM | 98.2 nM | – | – | – |
| GGAGCCGGCCUAGGAUAUUUCAUUAUUAAACAUGAGGAUCACCCAUGUAGGCCAGAAGGCCUUGGGAAGAAGGAGGUCGGCUCC [Loop Effect - U24,U26,U28] (Eterna round: R96, puzzle: Same State NG 2) | 17.1 nM | 49.6 nM | 68.5 nM | – | – | – |
| UACUUCAUGUAAGGAUAUGCAGCCGUUUCGGCUGCAGAAGGUACUAUAAUACAUGAGGAUCACCCAUGUCUCUCGCAUUGCGAG [JL SSNG1 1.50] (Eterna round: R96, puzzle: Same State NG 1) | 53.6 nM | 86.2 nM | 158 nM | – | – | – |
| UUAAUCUGAACAUGAGGAUCACCCAUGUAUCUUACCUUAGGACAGGAUAUAGAUGUUAAGAAUUACUAGAAGGGUCAGUAUAUU [JR_SSNG3_Sub012] (Eterna round: R96, puzzle: Same State NG 3) | – | 33.1 nM | – | – | – | – |
| AGUCCAGCCUGAGCUGGACAAAAGCAUGUACAUGAGGAUCACCCAUGUUCAUGUACUAGCUUUUUGCUCGUCUUGCC [salish99_208a_r3_108x] (puzzle: Sensor for hsa-mir-208a) | – | – | – | 157 nM | 14.8 nM | 163 nM |
| ACAGCGAAACAUGAGGAUCACCCAUGUAAAGAAUAGGUGAAUUGUUGCUCGUCUUGAAGAGAAGAGAAGAAGGAGAG [Victory 1] (puzzle: Sensor for hsa-mir-208a version 2) | – | – | – | 192 nM | 101 nM | 180 nM |
| AAUCGUUUGAUAGGAUAUCGCUAUACAUGAGGAUCACCCAUGUUUACCACGCUGGUUUUUCGUACCGAGAAGGAUUCUGAUGAU [JL JR sub007 mod 4] (Eterna round: R96, puzzle: Same State NG 2) | 36 nM | 25.4 nM | 36.1 nM | – | – | – |
| AGCUUGUAACAUGAGGAUCACCCAUGUACAAGCUUUUUGCUCGUUUUACCCGGGCCCGGCGAUUACACGGGCCCGGG [Optimized Design] (puzzle: Sensor for hsa-mir-208a version 2) | – | – | – | 10.1 nM | 9.89 nM | 9.67 nM |
| GUAGCAUACCGAGGAUAUUCAUAUUACAUGAGGAUCACCCAUGUAAGGCCACAUUAGUGGCCUUGGGAGAAGGCGGAAUGCUAC [Xeonanis - 20 Mod42] (Eterna round: R96, puzzle: Same State NG 2) | 18.3 nM | 30 nM | 180 nM | – | – | – |
| GGUCCAGCCUGAGCUGGACUAUAGUAUGUACAUGAGGAUCACCCAUGUCAUGUAUAAGUAUGUUGUUUGUCUUGAAA [Sensorship 4 - Jieux - Sensor for hsa-mir-208a] (puzzle: Sensor for hsa-mir-208a) | – | – | – | 23.6 nM | 20.1 nM | 24.2 nM |
| GUACUCAUGUAAGGAUAUGCAGCCGUUUCGGCUGCAGAAGGUACUAUAAUACAUGAGGAUCACCCAUGUCUCUAUAAUUUAGUG [salish99_SSNG1_r04_901] (Eterna round: R96, puzzle: Same State NG 1) | 70.6 nM | 34.5 nM | 49 nM | – | – | – |
| GAGUGGUAGAGAGGAUAUGCAUUGUUAUUAAAUGCAGAAGGUUUUAACAUGAGGAUCACCCAUGUAGGACUAUUCCUGUGUUUC [Parity 66 - Jieux - Same State NG 1] (Eterna round: R96, puzzle: Same State NG 1) | – | 10.8 nM | – | – | – | – |
| AGCUAAAACGAAGGAUAUACUGACAUGAGGAUCACCCAUGUCUACAUGAUUUAUUGUGAUCACAUGUAGAAGGUCGUACUAACA [SameState NG2 #22] (Eterna round: R96, puzzle: Same State NG 2) | – | 58.5 nM | – | – | – | – |
| AUUAAUAAUCUAGGAUAUCACGUCGAAUAGACGUGAGAAGGAGAUCAUAACAUGAGGAUCACCCAUGUAUUACAUGAAGUUAAU [SSNG1/7-B1] (Eterna round: R96, puzzle: Same State NG 1) | 27.5 nM | 29.9 nM | 34.8 nM | – | – | – |
| GUAUAACAUGAGGAUCACCCAUGUCAACAAAGUCGAGGAUAUGGGCAUAGAUUAUAAGAACCAGAAGGCGAAUAUG [Mat - Same State 1 - Mod of UCT - D42] (puzzle: Same State 1) | – | – | – | 119 nM | 219 nM | 666 nM |

Reference: the supplement of paper PMC9170038
